# Test results from article PMC10418624, “Expression and Characterization of Two α-L-Arabinofuranosidases from Talaromyces amestolkiae: Role of These Enzymes in Biomass Valorization” (International Journal of Molecular Sciences, 2023).
# Experiments:
# [1] = test system: T1, O=[N+]([O-])c1ccc(O[C@@H]2O[C@@H](CO)[C@H](O)[C@H]2O)cc1; experiment: purified protein; assay type: biochemical, Talaromyces amestolkiae; settings: standard reaction: 50 mM sodium acetate pH 5, 50 °C, 0.1% BSA, substrate 0.0625-16 mM
# T1 construct: secreted from Pichia pastoris GS115 (pPIC9), N-glycosylated, about 37 kDa on SDS-PAGE; forward primer encodes LPTDETA after the EcoRI site, reverse primer encodes C-terminal PGLLTHK
# [2] = test system: T2, O=[N+]([O-])c1ccc(O[C@@H]2O[C@@H](CO)[C@H](O)[C@H]2O)cc1; experiment: purified protein; assay type: biochemical, Talaromyces amestolkiae; settings: standard reaction: 50 mM sodium acetate pH 5, 50 °C, 0.1% BSA, substrate 0.0625-16 mM
# T2 construct: mature form without 18-residue signal peptide (54 bp), gene 1223 bp with one intron, 368 residues, 39 kDa, N-terminal CBM1, Ser/Thr-rich linker and GH62 domain; secreted from Pichia pastoris GS115 (pPIC9), N-glycosylated, about 50 kDa on SDS-PAGE; forward primer encodes QASLYGQ after the EcoRI site, reverse primer encodes C-terminal LLTLSK
# Chain of ARA-1 (Talaromyces amestolkiae) (chain, as listed by the source): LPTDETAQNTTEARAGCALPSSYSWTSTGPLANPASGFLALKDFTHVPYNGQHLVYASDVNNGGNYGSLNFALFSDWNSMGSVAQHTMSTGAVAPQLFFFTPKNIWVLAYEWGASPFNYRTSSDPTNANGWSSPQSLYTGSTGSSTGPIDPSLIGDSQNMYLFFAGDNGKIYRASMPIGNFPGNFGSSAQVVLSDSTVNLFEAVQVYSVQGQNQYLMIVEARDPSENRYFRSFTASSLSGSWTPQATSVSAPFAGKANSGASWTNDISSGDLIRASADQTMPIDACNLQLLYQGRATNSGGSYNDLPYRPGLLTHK
# Chain of ARA-2 (Talaromyces amestolkiae) (chain, as listed by the source): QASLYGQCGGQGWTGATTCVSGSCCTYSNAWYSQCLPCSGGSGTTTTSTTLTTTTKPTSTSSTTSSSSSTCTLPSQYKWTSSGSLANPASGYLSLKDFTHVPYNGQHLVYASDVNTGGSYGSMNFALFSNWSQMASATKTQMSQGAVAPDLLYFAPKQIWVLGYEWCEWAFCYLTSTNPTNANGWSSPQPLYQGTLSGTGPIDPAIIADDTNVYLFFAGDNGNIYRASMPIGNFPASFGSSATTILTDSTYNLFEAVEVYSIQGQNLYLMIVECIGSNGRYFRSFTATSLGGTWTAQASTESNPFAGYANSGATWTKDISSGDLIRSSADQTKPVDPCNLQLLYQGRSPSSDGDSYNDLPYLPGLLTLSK
Substance,Km [1],kcat [1],kcat/Km [1],Km [2],kcat [2],kcat/Km [2]
ARA-1 (Talaromyces amestolkiae),8.97 ± 0.06 mM,0.05 ± 0.001 s⁻¹,5 ± 0.4 M⁻¹ s⁻¹,–,–,–
ARA-2 (Talaromyces amestolkiae),–,–,–,1.48 ± 0.08 mM,0.41 ± 0.01 s⁻¹,280 ± 10 M⁻¹ s⁻¹
